For one data set, the target named is T1, factor VIIIa, P00451.
T1 chain: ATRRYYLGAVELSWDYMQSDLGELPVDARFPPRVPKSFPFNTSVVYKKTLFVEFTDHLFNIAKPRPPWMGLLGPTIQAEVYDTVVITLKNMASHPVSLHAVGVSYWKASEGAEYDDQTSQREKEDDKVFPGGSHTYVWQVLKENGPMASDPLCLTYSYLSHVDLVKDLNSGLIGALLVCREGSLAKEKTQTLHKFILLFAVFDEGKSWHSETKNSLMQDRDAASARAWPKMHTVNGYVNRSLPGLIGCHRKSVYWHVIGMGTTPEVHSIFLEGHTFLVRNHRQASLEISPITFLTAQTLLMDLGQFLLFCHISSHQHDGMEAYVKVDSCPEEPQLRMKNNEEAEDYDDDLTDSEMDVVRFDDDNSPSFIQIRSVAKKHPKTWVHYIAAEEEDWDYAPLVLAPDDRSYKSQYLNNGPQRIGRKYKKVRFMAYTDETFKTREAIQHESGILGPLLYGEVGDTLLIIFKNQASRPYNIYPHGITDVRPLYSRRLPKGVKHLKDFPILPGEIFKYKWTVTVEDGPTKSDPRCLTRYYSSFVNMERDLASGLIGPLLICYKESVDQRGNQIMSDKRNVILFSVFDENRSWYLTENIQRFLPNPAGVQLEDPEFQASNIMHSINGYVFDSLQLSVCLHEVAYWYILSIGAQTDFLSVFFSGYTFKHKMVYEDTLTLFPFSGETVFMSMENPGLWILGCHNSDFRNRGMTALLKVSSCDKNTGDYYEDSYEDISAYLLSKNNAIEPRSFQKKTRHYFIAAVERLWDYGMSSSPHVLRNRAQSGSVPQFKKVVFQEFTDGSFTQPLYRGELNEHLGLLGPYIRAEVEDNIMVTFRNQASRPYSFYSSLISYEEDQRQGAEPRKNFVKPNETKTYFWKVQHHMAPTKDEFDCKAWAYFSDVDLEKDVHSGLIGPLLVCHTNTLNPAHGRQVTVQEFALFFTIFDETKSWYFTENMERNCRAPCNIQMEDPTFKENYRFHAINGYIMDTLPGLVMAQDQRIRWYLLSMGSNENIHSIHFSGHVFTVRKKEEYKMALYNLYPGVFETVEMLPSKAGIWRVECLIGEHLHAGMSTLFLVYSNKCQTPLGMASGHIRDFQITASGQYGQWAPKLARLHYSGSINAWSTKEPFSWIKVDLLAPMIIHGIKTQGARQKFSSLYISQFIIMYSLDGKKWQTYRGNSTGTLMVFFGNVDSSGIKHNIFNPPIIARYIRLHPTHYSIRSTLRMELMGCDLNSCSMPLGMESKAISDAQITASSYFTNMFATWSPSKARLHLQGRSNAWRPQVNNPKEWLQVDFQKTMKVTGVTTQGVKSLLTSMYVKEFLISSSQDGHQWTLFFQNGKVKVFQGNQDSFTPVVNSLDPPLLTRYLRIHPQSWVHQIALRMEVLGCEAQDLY

B1: IXahelixVII (protein)
chain 1: YNSGKLEEFVQGNLERECMEEKCSFEEAREVFENTERTTEFWKQYVDGDQCESNPCLNGGSCKDDINSYECWCPFGFEGKNCELDVTCNIKNGRCEQFCKNSADNKVVCSCTEGYRLAENQKSCEPAVPFPCGRVSVSQTSKLTR
chain 2: VVGGEDAKPGQFPWQVVLNGKVDAFCGGSIVNEKWIVTAAHCVETGVKITVVAGEHNIEETEHTEQKRNVIRIIPHHNYNAAINKYNHDIALLELDEPLVLNSYVTPICIADKEYTNIFLKFGSGYVSGWGRVFHKGRSALVLQYLRVPRLMTQDCLQSTKFTIYNNMFCAGFHEGGRDSCQGDSGGPHVTEVEGTSFLTGIISWGEECAMKGKYGIYTKVSRYVNWIKEKTKLT
On to B1, for which, in the data set with factor VIIIa, P00451, the “X-activation rate, PL-minus system (14 nM VIIIa, 400 nM X)” value is recorded as “NM”; the “X-activation rate, PL-plus system (70 pM VIIIa, 0.5 nM IXa, 15 nM X)” value is “NM”; the “rate of factor X activation with phospholipid, factor VIIIa increased from 70 pM to 14 nM” value is given as “for IXahelixVII it was still not measurable”. In the data set with factor X, P00742, the “rate of factor Xa generation, Ca2+ and phospholipid, no VIIIa (20 nM IXa, 100 nM X)” value was “The rate of factor Xa generation in each case was 0.1 nM/min”.

Source of the values: patent publication US20040110688.
